In patent US20120041177A1 (SPIBER TECHNOLOGIES AB C O RISING, published 2012):

Experiments:
[1] = molecular target: the molecule itself; assay: self-polymerisation at pH 6
[2] = molecular target: the molecule itself; assay: self-polymerisation at pH 6; macroscopic formation and SEM
Description: Conditions for fiber formation were essentially as described in Stark, M. et al. Biomacromolecules 8, 1695-1701, (2007). Approximately 25 μM of each protein was incubated in 20 mM Na phosphate buffer at pH 7 or 6, with or without 300 mM NaCl. At different time points, samples were applied on SEM stubs, where they were air-dried and vacuum-coated with gold and palladium. The samples were photographed with a LEO 1550 FEG microscope (Carl Zeiss, Oberkochen, Germany) using an acceleration voltage of 5 kV.
The arrows in FIG. 3 indicate when macroscopic formations first were detected, showing that at pH 7 the presence of NT delays polymerisation, while at pH 6 it accelerates polymerisation. This is independent of whether the C-terminal fragment (filled circle) is present or not (indicated by the striped circle). Moreover, the presence of NT results in more ordered polymerisation, exemplified by the scanning electron micrographs in FIG. 3, which are representative early polymers for all constructs at pH 7 (above time scale) or for NT4RepCT at pH 6 (below time scale).

NT2-REP4-CT = molecular target: T1, NT2-REP4-CT; assay: capture of soluble protein on fibers at pH 6, release at pH 7, SDS-PAGE; 300 mM NaCl decreased capture at pH 6
T1 construct: Stood in the assay as a solid fiber; also called NTNT-REP-CT; HisNTNT4RepCT
T1 chain: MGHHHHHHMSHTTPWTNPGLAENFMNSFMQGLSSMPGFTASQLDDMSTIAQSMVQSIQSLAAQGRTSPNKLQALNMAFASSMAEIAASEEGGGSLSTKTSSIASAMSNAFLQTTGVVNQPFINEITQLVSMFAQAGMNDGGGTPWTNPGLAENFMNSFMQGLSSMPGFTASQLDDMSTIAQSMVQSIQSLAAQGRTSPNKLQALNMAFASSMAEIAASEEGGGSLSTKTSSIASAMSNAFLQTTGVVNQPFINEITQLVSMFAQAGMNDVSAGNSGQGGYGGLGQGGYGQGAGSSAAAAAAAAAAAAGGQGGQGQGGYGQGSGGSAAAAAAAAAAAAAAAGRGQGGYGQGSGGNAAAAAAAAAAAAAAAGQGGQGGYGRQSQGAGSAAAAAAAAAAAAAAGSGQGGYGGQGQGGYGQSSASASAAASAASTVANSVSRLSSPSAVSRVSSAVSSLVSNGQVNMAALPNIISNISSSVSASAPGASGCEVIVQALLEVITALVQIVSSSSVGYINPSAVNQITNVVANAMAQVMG
Description: (§1) Fibers (˜0.5 cm long, ˜50 ug) of NT-REP₄-CT (SEQ ID NO 20), NT₂-REP₄-CT (SEQ ID NO 23) and REP₄-CT (SEQ ID NO 2, control) were submerged in 100 μl solution of 5 mg/ml soluble NTHis (SEQ ID NO 30) or NT₂-Brichos (SEQ ID NO 32) at pH 8 for 10 minutes. The pH was decreased by addition of 400 ul sodium phosphate buffer (NaP) to pH 6 and incubated for 10 minutes to allow assembly of soluble NT to the fiber. The fibers were transferred to 500 μl of NaP at pH 6, and washed twice. Finally, the fibers were transferred to 500 μl of NaP at pH 7, and incubated 10 minutes to allow release of soluble NT. The same was done in the presence of 300 mM NaCl in all pH 6 NaP buffers. Samples from the different solutions were analysed on SDS-PAGE.

NT-REP4-CT = molecular target: T2, NT-REP4-CT; assay: as above
T2 construct: Stood in the assay as a solid fiber (about 0.5 cm, about 50 ug) or as a cast film; also called NT4RepCT
T2 chain: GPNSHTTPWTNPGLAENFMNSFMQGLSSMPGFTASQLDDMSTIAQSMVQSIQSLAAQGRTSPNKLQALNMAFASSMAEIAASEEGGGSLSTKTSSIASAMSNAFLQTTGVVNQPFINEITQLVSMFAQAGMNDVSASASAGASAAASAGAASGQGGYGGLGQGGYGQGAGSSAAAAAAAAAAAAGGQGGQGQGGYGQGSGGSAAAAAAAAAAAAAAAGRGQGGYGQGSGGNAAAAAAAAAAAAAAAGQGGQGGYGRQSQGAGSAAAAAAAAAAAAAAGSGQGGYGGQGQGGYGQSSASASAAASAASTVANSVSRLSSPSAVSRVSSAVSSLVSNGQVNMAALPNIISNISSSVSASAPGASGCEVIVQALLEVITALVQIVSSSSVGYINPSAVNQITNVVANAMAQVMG
Description: as §1

[3] = molecular target: the molecule itself; assay: self-polymerisation at pH 6; macroscopic formation, SEM and turbidimetry
[4] = molecular target: the molecule itself; assay: self-association; dynamic light scattering and turbidimetry; reversed by an increase of pH, blocked by high levels of salt
Description: The effect of pH and ionic strength on the hydrodynamic diameter of NT and NTΔHis6 (to exclude that pH dependent effects are caused by His at position 6) was measured at 25±0.1° C. in a Zetasizer Nano S from Malvern Instruments (Worcestershire, UK) equipped with a 633 nm HeNe laser. The buffers were filtered through nylon filters prior to use. The sample volume was 50 μl and ZEN2112 low glass cuvettes were used. The attenuation and measurement positions from the cuvette wall (4.65 mm) were kept constant for all analyses. Six scans were performed for each sample. All samples were analyzed in triplicate. The hydrodynamic diameter (dH) was calculated using the General Purpose algorithm in the Malvern software for DLS analysis, which correlates the diffusion coefficient to the hydrodynamic diameter through the Stokes-Einstein equation: […]
NT was subjected to dynamic light scattering at pH 6-7 and 0-300 mM NaCl. See also Table 3

B1: NT5Rep (other)
chain: GSGNSHTTPWTNPGLAENFMNSFMQGLSSMPGFTASQLDDMSTIAQSMVQSIQSLAAQGRTSPNKLQALNMAFASSMAEIAASEEGGGSLSTKTSSIASAMSNAFLQTTGVVNQPFINEITQLVSMFAQAGMNDVSASASAGASAAASAGAPGYSPAPSYSSGGYASSAASAAAAAGQGGPGGYGPAPNQGASSAAAAAAGSGQGPSGPYGTSYQISTQYTQTTTSQGQGYGSSSAGAAAAGAAGAGQGGYGGQGQGGYGQGAGGAAAAAAAAAAAAAAAGQGGQGGGGYGQGGQGGQGGQGQGGYGQGAGSSAAAAAAAAAAAAAAGRGQGGYGPGSGG
notes: Non-natural minispidroin derived from Euprosthenops australis MaSp1; Released from His6TrxHis6 by thrombin
- binding result [1]: binds

B2: NT4RepCT (as an N-terminal fusion to His6) (other)
chain: MKASHTTPWTNPGLAENFMNSFMQGLSSMPGFTASQLDDMSTIAQSMVQSIQSLAAQGRTSPNKLQALNMAFASSMAEIAASEEGGGSLSTKTSSIASAMSNAFLQTTGVVNQPFINEITQLVSMFAQAGMNDVSASASAGASAAASAGAASGQGGYGGLGQGGYGQGAGSSAAAAAAAAAAAAGGQGGQGQGGYGQGSGGSAAAAAAAAAAAAAAAGRGQGGYGQGSGGNAAAAAAAAAAAAAAAGQGGQGGYGRQSQGAGSAAAAAAAAAAAAAAGSGQGGYGGQGQGGYGQSSASASAAASAASTVANSVSRLSSPSAVSRVSSAVSSLVSNGQVNMAALPNIISNISSSVSASAPGASGCEVIVQALLEVITALVQIVSSSSVGYINPSAVNQITNVVANAMAQVMGKLAAALEHHHHHH
notes: also called NT4RepCTHis
- binding result [2]: binds

B3: NTHis (other)
chain: MSHTTPWTNPGLAENFMNSFMQGLSSMPGFTASQLDDMSTIAQSMVQSIQSLAAQGRTSPNKLQALNMAFASSMAEIAASEEGGGSLSTKTSSIASAMSNAFLQTTGVVNQPFINEITQLVSMFAQAGMNDVSASASAGASAAASAGAAALEHHHHHH
notes: Soluble protein, used at 5 mg/ml; also called NT as an N-terminal fusion to His6; soluble NT
- binding result (NT2-REP4-CT): binds
- binding result (NT-REP4-CT): binds

B4: NT2-Brichos (other)
chain: MGHHHHHHMSHTTPWTNPGLAENFMNSFMQGLSSMPGFTASQLDDMSTIAQSMVQSIQSLAAQGRTSPNKLQALNMAFASSMAEIAASEEGGGSLSTKTSSIASAMSNAFLQTTGVVNQPFINEITQLVSMFAQAGMNDGGGTPWTNPGLAENFMNSFMQGLSSMPGFTASQLDDMSTIAQSMVQSIQSLAAQGRTSPNKLQALNMAFASSMAEIAASEEGGGSLSTKTSSIASAMSNAFLQTTGVVNQPFINEITQLVSMFAQAGMNDVSAGNSEHLVTTATFSIGSTGLVVYDYQQLLIAYKPAPGTCCYIMKIAPESIPSLEALTRKVHNFQMECSLQAKPAVPTSKLGQAEGRDAGSAPSGGDPAFLGMAVSTLCGEVPLYYI
notes: Soluble fusion protein with His6, used at 5 mg/ml; also called NT-NT-Brichos; NTNTBrichos
- binding result (NT2-REP4-CT): binds
- binding result (NT-REP4-CT): binds

B5: NT4Rep (other)
chain: GSGNSHTTPWTNPGLAENFMNSFMQGLSSMPGFTASQLDDMSTIAQSMVQSIQSLAAQGRTSPNKLQALNMAFASSMAEIAASEEGGGSLSTKTSSIASAMSNAFLQTTGVVNQPFINEITQLVSMFAQAGMNDVSASASAGASAAASAGAASGQGGYGGLGQGGYGQGAGSSAAAAAAAAAAAAGGQGGQGQGGYGQGSGGSAAAAAAAAAAAAAAAGRGQGGYGQGSGGNAAAAAAAAAAAAAAAGQGGQGGYGRQSQGAGSAAAAAAAAAAAAAAGSGQGGYGGQGQGGYGQS
notes: as for B1
- binding result [3]: binds

B6: NT, N-terminal fragment of major ampullate spidroin (MaSp) 1 from Euprosthenops australis (other)
chain: GSGNSHTTPWTNPGLAENFMNSFMQGLSSMPGFTASQLDDMSTIAQSMVQSIQSLAAQGRTSPNKLQALNMAFASSMAEIAASEEGGGSLSTKTSSIASAMSNAFLQTTGVVNQPFINEITQLVSMFAQAGMNDVSA
notes: Expressed as a C-terminal fusion to His6TrxHis6 and released by thrombin
- binding result [4]: binds
